Ends that are not written are not given here.
How the values were obtained:
[1] = Stability of cysteine and cystine-containing peptides in 20% v/v DMSO in WFI (UPLC-UV-MS purity); assay type: physicochemical; conditions: room temperature
Method: To examine the effect on stability of a peptide that contains cysteine(s) (non-oxidized, C) or cystine(s) (oxidized, C (C)) in a formulation matrix (20% v/v DMSO in WFI (water for injection), four non-oxidized (SEQ ID NO: 1, 2, 3 and 4) and their oxidized, cystine-containing, peptides were manufactured and individually examined in 20% v/v DMSO (aq.)
Each peptide (2.0 mg) was dissolved in 2.0 ml of 0.09% TFA in H2O: acetonitrile (1:1, v/v). Aliquots of 200 μL were transferred to a 1 mL amber vial and then freeze dried overnight. An aliquot (0.2 mg) was then redissolved in 20% v/v DMSO in WFI (1 mL). After swirling for 2 minutes, a sample was analyzed by UPLC-UV-MS. The remainder of the sample was stored at room temperature and analyzed at different time intervals (1 h, 2 h, 3 h, 4 h). The identity and purity of the purified peptides were then determined by UPLC-UV-MS on a Waters Acquity UPLC/TQD system using an C18 Waters Acquity BEH130 analytical column (1.7 μm particle size, 2.1×150 mm, flow 0.4 mL/min) with a linear gradient (5% B to 95% B, linear gradient in 10 min). The absorbance was measured at 220 nm.
MassLynx v4.1 was used to integrate the individual peaks of the chromatogram in the region of the observed peptide-derived signals. The following ApexTrack peak detection parameters were used for integration: peak-to-peak baseline noise was set at automatic, peak width at 5% height was set at automatic, baseline start threshold of 0.05% and baseline end threshold of 0.05%. The detect shoulder function was turned on. The following response thresholds were set: relative height of 0.20 and relative area of 0.10. After the peak of the desired peptide was identified by MS, the corresponding integral of the peak in the UV chromatogram is reported in Table 2 as percentage of the total integrated peaks, purity (% a/a).
Purity of the non-oxidized and oxidized peptide composition over time was evaluated over 4 h. Additional mass adducts, consistent with the formation of intermolecular or intramolecular disulfide bonds, increased over time in all spectra of cysteine-containing peptides compared to cystine-containing peptides. The purity of the non-oxidized peptides set forth in SEQ ID NO: 1, 3 and 4 declined from >90% a/a at to less than 80% a/a with the lowest stability observed for SEQ ID NO: 1 with a purity of 64% a/a after 4 h. For the cystine-containing peptide analogs, the purity remained >90% a/a after 4 h.

[2] = Stability of peptide mixtures under long term and accelerated storage (UPLC); assay type: physicochemical; conditions: peptide in mixture of 6 peptides
Method: To examine the effect on stability of peptides that contain cystine (oxidized, C (C)) present in a mixture of 6 peptides, two examples of mixtures of both non-cysteine-containing (NCC1-6) and cystine-containing (SEQ ID NO: 1-6) peptides were assessed. Typical chromatograms of the two mixtures are depicted in FIG. 2. Both mixtures were placed on two different storage conditions, ‘long term storage condition’ (i.e. −20±5° C.) and ‘accelerated storage condition’ (i.e. 5±3° C.).
The purity, the level of impurities, and the quantification per peptide of both mixtures are determined by reversed phase rapid UPLC using a mobile phase gradient of ACN/IPA and water with TFA, and UV detection at λ=220 nm. The method quantifies main peaks and impurities in mixtures of peptides. The reporting threshold for the method is 0.10% a/a.
Both mixtures of six peptides were stored under the two conditions described and by using the analytical method as described. The stability was monitored. The quantity of each of the peptides present in the mix (assay values), the purity, and the individual impurities were measured at several timepoints over a period of 3 months. […] Furthermore, focussing on the individual impurities it is shown that no significant degradation has taken place as all levels remain constant and no new impurities have formed.

[3] = system: T cells cultured from PBMC from healthy donors; test: T cell induction by PRAME-based SLPs, IFNy ELISpot (test 1 and test 2); set-up: species or system human; key to ELISPOT IFNy / ELISPOT IFNy, summary of the results in the table: − (negative); + (positive); When at least one donor had a positive response, this is denoted as POS; conditions: 2 peptide pools
Method: The capacity of human-PRAME-based SLPs to activate T cells was studied. The biological activity of the synthesized and purified SLPs was tested using PBMC from healthy donors. Monocytes were isolated using anti-CD14 beads by magnet activated cell sorting (MACS) following the protocol of the supplier (Miltenyi Biotec). In short, PBMCs were isolated by centrifugation over a Ficoll gradient and cryopreserved. To generate dendritic cells (DCs), approximately […] thawed PBMC were used for the isolation of CD14 positive cells. The cells were cultured for three days at 37° C. in 2 ml/well of IMDM 4% human serum (HS) containing 800 U/ml GM-CSF and 500 U/ml IL-4 (Peprotech). After 3 days 1 mL/well of IMDM 4% HS with GM-CSF (2400 U/mL) and IL-4 (1500 U/mL) was added to the monocytes-derived DCs and these adhered cells were cultured for an additional 3 days. On day 6, long peptides distributed over 2 pools were added to monocyte-derived DCs of naive donors at a 13 μM concentration and incubated overnight at 37° C. The next day (day 7) peptide-loaded DCs were harvested, irradiated (1000 rad), washed and mixed in a 1:10 ratio with autologous PBMC in IMDM 8% human serum in the presence of IL-7 (10 ng/ml) and IL-12p70 (100 μg/mL).
On day 10 new DCs were generated and loaded, after 6 days, with SLPs on day 16 as described above. The next day, these peptide-loaded DCs were harvested, irradiated (1000 rad) and washed. Also the cultured T cells were harvested. Both were counted and mixed in a 1:10 ratio (DC:T) in IMDM 8% human serum in the presence of IL-7 (10 ng/ml) and IL-12p70 (100 μg/mL) for the first restimulation. On the same day, new DCs were generated as described above that were loaded with SLPs on day 23 as described above. The next day, peptide-loaded DCs were harvested, irradiated (1000 rad) and washed. Also the cultured and restimulated T cells were harvested. Both were counted and mixed in a 1:10 ratio (DC:T) in IMDM 8% human serum in the presence of IL-7 (10 ng/ml) and IL-12p70 (100 μg/mL) for the second restimulation.
On this day 24, also test 1 was started in which DCs loaded with individual SLPs were cultured with harvested T cells from restimulation 1. For test 1, DCs and harvested T cells were cultured in a 1:10 ratio for 2 days after which cells were transferred to a coated ELISpot plate (see description below). On day 24, new DCs were generated as described above that were loaded with SLPs on day 30 as described above. The next day, peptide-loaded DCs were harvested, irradiated (1000 rad) and washed. Also the cultured twice restimulated T cells were harvested. Both were counted and mixed in a 1:10 ratio (DC:T) in IMDM 8% human serum in the presence of IL-2 (30 IU/mL) and IL-12p70 (100 μg/mL) for the third restimulation.
On day 31, also test 2 was started in which DCs loaded with individual SLPs were cultured with harvested T cells from restimulation 2. For test 2, DCs and harvested T cells were cultured in a 1:10 ratio for 2 days after which cells were transferred to a coated ELISpot plate (see description below).
The T cell cultures were restimulated three times in 1-week cycles using peptide loaded autologous moDCs. After the 2nd and 3rd restimulation, reactivity towards single SLPs was tested (test 1 and test 2, respectively). Reactivity was determined by measuring IFNy production using ELISpot.
For ELISpot analysis, multiscreen plates were coated with an IFNy coating antibody overnight at 4° C. The next day, the plate was washed 4× with PBS and blocking was done using IMDM 8% HS at 37° C. for at least one hour. Each sample was tested in triplicate. As a positive control, phytoheamagglutinin (PHA, 1 μg/mL) was added to cells that were not stimulated with SLP after thawing. The plate was cultured overnight at 37° C. Thereafter, cells were discarded and the plate was washed using PBS/0.05% Tween-20. The IFNy detection antibody was diluted and added to each well and incubated for 2 hours at room temperature. […]

| Sequence | Purity (% a/a) ([1]; Time 0 h) | Purity (% a/a) ([1]; Time 1 h) | Purity (% a/a) ([1]; Time 2 h) | Purity (% a/a) ([1]; Time 3 h) | Purity (% a/a) ([1]; Time 4 h) | Assay (net peptide content) (mg/vial) ([2]; Initial) | Assay (net peptide content) (mg/vial) ([2]; Storage at 5 ± 3° C., T1M) | Assay (net peptide content) (mg/vial) ([2]; Storage at 5 ± 3° C., T2M) | Assay (net peptide content) (mg/vial) ([2]; Storage at 5 ± 3° C., T3M) | Assay (net peptide content) (mg/vial) ([2]; Storage at −20 ± 5° C., T2M) | Assay (net peptide content) (mg/vial) ([2]; Storage at −20 ± 5° C., T3M) | other results |
| --- | --- | --- | --- | --- | --- | --- | --- | --- | --- | --- | --- | --- |
| AARLCCQLDPARDVLCLRPVGAESR [Cysteine (C) containing SEQ ID NO: 4, reference compound] | 96.51 | 90.72 | 83.13 | 77.16 | 72.13 |  |  |  |  |  |  |  |
| AARLCCQLDPARDVLCLRPVGAESR [Cystine(C(C)) containing SEQ ID NO: 4] | 93.50 | 94.26 | 93.58 | 93.16 | 92.89 | 0.21 | 0.20 | 0.21 | 0.21 | 0.20 | 0.21 |  |
| HLSLRGLPVCAFSSAGPCALRFTSA [Cysteine (C) containing SEQ ID NO: 1, reference compound] | 95.01 | 86.88 | 78.20 | 70.34 | 64.12 |  |  |  |  |  |  |  |
| LSAMSTTDLEAYFKDCLFKDWEELG [SEQ ID 2] |  |  |  |  |  | 0.24 | 0.24 | 0.25 | 0.25 | 0.25 | 0.25 |  |
| VLSRKYTSFPWLLGCTANWILRGTSFVYVPSALNPA [Cysteine (C) containing SEQ ID NO: 3, HBV Pol fragment, unmodified cysteine comparator, reference compound] | 97.66 | 93.48 | 87.94 | 84.12 | 79.81 |  |  |  |  |  |  |  |
| VVNHYFQTRHYLHTLWKAGILYKRETTRSASFCGSPYSW (VVNHYFQTRHYLHTLWKAGILYKRETTRSASFC(Cys)GSPYSW) [SEQ ID 5, HBV Pol fragment SLP with cysteinylated cysteine] |  |  |  |  |  | 0.20 | 0.20 | 0.21 | 0.22 | 0.20 | 0.22 |  |
| VWTSPRRLVELAGQSLLKDEALAIAALELLPRELF (listed as Homo sapiens) [SEQ ID NO: 42, PRAME-based SLP] |  |  |  |  |  |  |  |  |  |  |  | ELISPOT IFNy ([3]; donor BC290, Test 1): −; ELISPOT IFNy ([3]; donor BC290, Test 2): −; ELISPOT IFNy ([3]; donor BC298, Test 1): +; ELISPOT IFNy ([3]; donor BC298, Test 2): +; ELISPOT IFNy ([3]; donor BC305, Test 1): −; ELISPOT IFNy ([3]; donor BC305, Test 2): −; ELISPOT IFNy ([3]; donor BC306, Test 1): −; ELISPOT IFNy ([3]; donor BC306, Test 2): −; ELISPOT IFNy ([3]; donor BC312, Test 1): −; ELISPOT IFNy ([3]; donor BC312, Test 2): −; ELISPOT IFNy ([3]; donor BC315, Test 1): −; ELISPOT IFNy ([3]; donor BC315, Test 2): −; ELISPOT IFNy ([3]; donor BC321, Test 1): +; ELISPOT IFNy ([3]; donor BC321, Test 2): − |
| YPALMPLYACIQAKQAFTFSPTYKAFLSKQYMNLYPVAR (cysteinylated cysteine) [SEQ ID 6, HBV Pol fragment SLP with cysteinylated cysteine] |  |  |  |  |  | 0.21 | 0.20 | 0.21 | 0.22 | 0.20 | 0.22 |  |

Source: patent US20260200990A1, “MODIFIED LONG PEPTIDES SUITABLE FOR USE IN IMMUNISATION” (ISABELLA PHARMA B.V., priority 2022, published 2026)
